Measured values: patent US20160024226A1

Target: TNF-α (WEHI-13VAR cytotoxicity assay of Example 2)

cycloalkyne-modified adalimumab Fab′
IC50 (read off the curve) [lower panel]: 0.5 µg/mL | IC50 (read off the curve) [upper panel]: 0.3 µg/mL
